Assay results taken from the supplement of paper PMC10065799, “High-throughput profiling of sequence recognition by tyrosine kinases and SH2 domains using bacterial peptide display” (eLife, 2023).

Columns and labels:
SHP2-C SH2 = test: SH2 binding enrichment of the phosphorylated peptide, bacterial display (enrichment ratio); higher = better substrate or ligand; peptides without Tyr show the background
c-Src SH2 = test: as above
Grb2 SH2 = Grb2 SH2 (UniProt P62993); test: as above
Jak2 = Jak2 (UniProt O60674); test: phosphorylation enrichment, bacterial display (enrichment ratio); higher = better substrate or ligand; peptides without Tyr show the background
AncSZ = test: as above
EPHB2 = EPHB2 (UniProt P29323); test: as above
EPHB1 = EPHB1 (UniProt P54762); test: as above
Fer (mouse) = test: as above
c-Abl (mouse) = test: as above
Hck = Hck (UniProt P08631); test: as above
Fes = Fes (UniProt P07332); test: as above
Fyn = Fyn (UniProt P06241); test: as above
FGFR1 = FGFR1 (UniProt P11362); test: as above
c-Src = test: as above
MERTK = MERTK (UniProt Q12866); test: as above
FGFR3 = FGFR3 (UniProt P22607); test: as above
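Throughout, for SH2 binding enrichment of the phosphorylated peptide, bacterial display: peptide library displayed on the E. coli surface as eCPX fusions, selected cells deep-sequenced, score is each peptide's frequency after selection divided by its frequency in the input.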
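Throughout, for phosphorylation enrichment, bacterial display: 11-residue human phosphosite peptides and single-mutation variants displayed on the E. coli surface, counted by deep sequencing, each peptide's frequency after selection divided by its frequency in the unselected input library; frequency after pTyr selection over input frequency; kinase dosed for 20-30% of maximal phosphorylation in three min.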

Jak2, sequence (O60674 whole entry, looked up): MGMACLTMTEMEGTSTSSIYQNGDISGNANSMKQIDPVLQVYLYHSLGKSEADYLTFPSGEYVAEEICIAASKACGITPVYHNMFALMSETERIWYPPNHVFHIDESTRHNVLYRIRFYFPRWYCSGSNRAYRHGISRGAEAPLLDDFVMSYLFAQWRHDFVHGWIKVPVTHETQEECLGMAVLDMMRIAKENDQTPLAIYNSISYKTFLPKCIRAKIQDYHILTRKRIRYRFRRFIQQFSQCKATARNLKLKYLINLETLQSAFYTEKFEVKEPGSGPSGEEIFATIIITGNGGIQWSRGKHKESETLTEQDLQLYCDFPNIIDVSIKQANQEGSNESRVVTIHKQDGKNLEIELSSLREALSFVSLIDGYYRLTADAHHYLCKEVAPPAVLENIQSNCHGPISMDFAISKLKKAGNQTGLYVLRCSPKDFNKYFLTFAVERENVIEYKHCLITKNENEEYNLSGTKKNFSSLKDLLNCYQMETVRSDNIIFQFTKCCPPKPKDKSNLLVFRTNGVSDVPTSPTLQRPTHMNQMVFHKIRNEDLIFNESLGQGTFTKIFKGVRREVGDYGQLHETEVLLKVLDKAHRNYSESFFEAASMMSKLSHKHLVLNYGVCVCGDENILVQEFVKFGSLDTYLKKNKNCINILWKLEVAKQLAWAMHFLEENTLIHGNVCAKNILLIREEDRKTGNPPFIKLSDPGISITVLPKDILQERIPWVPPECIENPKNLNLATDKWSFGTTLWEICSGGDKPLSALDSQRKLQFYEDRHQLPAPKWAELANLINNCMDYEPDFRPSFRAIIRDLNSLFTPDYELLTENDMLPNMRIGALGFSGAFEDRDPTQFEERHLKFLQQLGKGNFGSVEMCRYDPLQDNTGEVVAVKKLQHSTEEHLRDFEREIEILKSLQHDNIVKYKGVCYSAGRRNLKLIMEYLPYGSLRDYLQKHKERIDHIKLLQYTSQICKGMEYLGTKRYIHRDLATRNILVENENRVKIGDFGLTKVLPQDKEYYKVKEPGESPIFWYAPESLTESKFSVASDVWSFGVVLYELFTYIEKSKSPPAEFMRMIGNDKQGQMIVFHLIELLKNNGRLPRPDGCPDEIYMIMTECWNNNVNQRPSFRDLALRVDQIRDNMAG
Hck, sequence (P08631 whole entry, looked up): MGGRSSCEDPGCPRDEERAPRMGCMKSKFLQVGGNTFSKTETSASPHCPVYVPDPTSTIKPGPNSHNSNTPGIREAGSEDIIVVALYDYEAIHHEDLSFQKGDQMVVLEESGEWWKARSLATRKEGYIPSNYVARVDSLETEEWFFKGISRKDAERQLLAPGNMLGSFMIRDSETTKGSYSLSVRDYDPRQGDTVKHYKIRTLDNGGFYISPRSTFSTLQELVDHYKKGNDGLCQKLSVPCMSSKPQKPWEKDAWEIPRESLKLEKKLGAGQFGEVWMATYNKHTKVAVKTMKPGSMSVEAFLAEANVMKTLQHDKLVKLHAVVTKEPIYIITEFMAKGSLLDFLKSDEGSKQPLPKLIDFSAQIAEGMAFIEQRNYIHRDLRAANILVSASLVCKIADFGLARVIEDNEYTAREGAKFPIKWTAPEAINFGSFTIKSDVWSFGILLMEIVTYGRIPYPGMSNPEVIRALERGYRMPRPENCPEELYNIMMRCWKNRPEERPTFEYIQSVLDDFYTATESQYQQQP
Fes, sequence (P07332 whole entry, looked up): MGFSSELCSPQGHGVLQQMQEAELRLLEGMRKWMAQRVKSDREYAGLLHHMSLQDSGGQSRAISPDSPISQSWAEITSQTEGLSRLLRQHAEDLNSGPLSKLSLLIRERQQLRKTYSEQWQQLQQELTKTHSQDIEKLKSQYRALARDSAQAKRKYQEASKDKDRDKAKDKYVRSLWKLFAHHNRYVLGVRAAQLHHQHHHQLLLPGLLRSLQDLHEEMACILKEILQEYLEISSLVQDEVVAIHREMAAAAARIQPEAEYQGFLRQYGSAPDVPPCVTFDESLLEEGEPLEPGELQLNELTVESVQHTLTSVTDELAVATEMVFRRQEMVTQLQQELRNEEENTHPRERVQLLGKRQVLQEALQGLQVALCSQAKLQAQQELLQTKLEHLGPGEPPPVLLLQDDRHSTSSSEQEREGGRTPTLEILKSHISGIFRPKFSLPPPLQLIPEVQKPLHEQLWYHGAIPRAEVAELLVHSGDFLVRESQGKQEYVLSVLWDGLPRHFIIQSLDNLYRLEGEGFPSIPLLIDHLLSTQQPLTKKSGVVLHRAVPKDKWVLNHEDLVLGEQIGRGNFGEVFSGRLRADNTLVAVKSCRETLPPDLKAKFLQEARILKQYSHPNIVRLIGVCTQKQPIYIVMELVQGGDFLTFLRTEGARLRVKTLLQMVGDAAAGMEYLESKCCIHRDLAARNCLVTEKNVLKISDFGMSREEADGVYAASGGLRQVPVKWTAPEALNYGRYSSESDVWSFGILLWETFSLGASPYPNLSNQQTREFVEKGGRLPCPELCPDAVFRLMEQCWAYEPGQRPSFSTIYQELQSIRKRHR
EPHB1, sequence (P54762 whole entry, looked up): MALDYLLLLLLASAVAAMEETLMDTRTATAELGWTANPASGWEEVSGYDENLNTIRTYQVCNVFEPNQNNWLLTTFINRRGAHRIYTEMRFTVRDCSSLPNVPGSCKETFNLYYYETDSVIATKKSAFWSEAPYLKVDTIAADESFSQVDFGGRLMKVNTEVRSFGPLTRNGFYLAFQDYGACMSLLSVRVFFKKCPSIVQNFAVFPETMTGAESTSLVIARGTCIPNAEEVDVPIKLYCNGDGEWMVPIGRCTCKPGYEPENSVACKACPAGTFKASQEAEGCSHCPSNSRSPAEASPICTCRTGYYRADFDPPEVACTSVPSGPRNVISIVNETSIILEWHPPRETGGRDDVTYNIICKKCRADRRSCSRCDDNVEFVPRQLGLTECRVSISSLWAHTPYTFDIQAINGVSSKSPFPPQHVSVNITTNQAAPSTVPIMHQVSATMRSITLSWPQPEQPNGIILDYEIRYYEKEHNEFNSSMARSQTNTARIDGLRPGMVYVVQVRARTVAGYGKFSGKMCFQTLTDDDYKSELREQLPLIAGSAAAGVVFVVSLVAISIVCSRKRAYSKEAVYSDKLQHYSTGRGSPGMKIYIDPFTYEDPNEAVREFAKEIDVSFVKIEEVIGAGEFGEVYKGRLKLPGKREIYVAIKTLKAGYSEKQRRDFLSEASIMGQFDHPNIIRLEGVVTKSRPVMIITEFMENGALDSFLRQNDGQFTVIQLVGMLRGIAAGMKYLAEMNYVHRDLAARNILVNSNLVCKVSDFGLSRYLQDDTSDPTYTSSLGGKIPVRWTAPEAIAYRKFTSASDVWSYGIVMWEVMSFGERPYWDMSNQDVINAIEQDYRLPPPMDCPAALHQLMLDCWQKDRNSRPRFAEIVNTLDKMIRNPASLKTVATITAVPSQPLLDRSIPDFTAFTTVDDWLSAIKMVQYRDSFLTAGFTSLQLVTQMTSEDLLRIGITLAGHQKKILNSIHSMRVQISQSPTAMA
MERTK, sequence (Q12866 whole entry, looked up): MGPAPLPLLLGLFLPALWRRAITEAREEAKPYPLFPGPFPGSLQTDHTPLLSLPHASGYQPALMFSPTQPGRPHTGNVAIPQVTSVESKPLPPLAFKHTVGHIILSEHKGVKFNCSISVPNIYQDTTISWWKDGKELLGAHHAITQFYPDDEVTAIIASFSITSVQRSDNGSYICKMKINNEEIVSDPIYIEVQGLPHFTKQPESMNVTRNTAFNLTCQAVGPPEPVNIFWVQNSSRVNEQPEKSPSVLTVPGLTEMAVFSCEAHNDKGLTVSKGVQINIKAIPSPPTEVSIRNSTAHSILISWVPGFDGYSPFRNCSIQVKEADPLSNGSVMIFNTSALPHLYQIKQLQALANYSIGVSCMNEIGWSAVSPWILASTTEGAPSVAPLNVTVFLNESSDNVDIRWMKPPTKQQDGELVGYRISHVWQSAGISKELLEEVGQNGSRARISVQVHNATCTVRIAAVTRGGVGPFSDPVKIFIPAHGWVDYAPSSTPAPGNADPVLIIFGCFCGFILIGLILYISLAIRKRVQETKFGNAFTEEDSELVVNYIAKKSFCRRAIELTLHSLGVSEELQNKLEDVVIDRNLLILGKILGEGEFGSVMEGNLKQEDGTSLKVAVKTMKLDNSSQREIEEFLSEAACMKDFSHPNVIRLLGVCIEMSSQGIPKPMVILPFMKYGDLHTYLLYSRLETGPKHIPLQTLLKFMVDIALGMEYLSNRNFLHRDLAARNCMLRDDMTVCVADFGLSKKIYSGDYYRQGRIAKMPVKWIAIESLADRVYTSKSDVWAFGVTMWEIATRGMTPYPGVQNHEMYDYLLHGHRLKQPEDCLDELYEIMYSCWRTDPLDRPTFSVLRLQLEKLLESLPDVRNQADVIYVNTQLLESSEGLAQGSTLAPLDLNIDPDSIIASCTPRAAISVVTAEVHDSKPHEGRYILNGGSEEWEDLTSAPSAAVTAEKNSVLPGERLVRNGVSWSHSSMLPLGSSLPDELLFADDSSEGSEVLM
Fyn, sequence (P06241 whole entry, looked up): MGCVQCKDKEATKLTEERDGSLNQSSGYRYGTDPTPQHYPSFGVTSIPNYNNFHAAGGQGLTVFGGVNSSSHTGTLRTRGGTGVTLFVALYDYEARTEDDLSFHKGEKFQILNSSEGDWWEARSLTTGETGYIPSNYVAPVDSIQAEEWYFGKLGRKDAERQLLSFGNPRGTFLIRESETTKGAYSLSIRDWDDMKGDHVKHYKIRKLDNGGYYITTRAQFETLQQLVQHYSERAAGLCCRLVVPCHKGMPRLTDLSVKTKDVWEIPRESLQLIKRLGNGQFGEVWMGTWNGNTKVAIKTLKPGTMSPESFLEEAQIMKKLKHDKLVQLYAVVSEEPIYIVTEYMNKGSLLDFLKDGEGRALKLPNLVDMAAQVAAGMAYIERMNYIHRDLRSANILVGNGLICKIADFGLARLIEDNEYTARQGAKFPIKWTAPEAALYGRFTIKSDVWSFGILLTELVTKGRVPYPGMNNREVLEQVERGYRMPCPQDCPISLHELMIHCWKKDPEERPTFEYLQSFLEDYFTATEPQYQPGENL

Row | SH2 binding enrichment (SHP2-C SH2) | SH2 binding enrichment (c-Src SH2) | SH2 binding enrichment (Grb2 SH2) | Sequence | phosphorylation enrichment (Jak2) | phosphorylation enrichment (AncSZ) | phosphorylation enrichment (EPHB2) | phosphorylation enrichment (EPHB1) | phosphorylation enrichment (Fer (mouse)) | phosphorylation enrichment (c-Abl (mouse)) | phosphorylation enrichment (Hck) | phosphorylation enrichment (Fes) | phosphorylation enrichment (Fyn) | phosphorylation enrichment (FGFR1) | phosphorylation enrichment (c-Src) | phosphorylation enrichment (MERTK) | phosphorylation enrichment (FGFR3)
1 | 0.82 | 0.547 | 0.739 | QRALLYEDTLF [UNC13D_Y56_A59T_YF] | 1.68 | 1.58 | 13.9 | 15.4 | 17.9 | 1.13 | 1.65 | 4.74 | 1.49 | 0.599 | 1.95 | 9.24 | 0.853
2 | 0.723 | 0.457 | 0.849 | CENNRYGMGAS [PDHA1_Y227_T231A] | 0.629 | 0.655 | 0.421 | 0.403 | 0.365 | 0.594 | 0.392 | 0.754 | 0.405 | 0.413 | 0.349 | 0.324 | 0.476
3 | 0.747 | 1.7 | 0.789 | SIRYNYLLDVL [FGFR4_Y237] | 0.674 | 0.943 | 0.524 | 0.394 | 0.47 | 0.821 | 0.603 | 0.745 | 0.495 | 0.479 | 0.443 | 0.509 | 0.636
4 | 1.07 | 0.572 | 1.05 | KDQGIYEDFVE [MYL6_Y86_T85I_YF] | 1.3 | 1.45 | 0.949 | 0.831 | 1.82 | 0.932 | 1.07 | 1.49 | 2.6 | 0.688 | 2.84 | 0.614 | 0.901
5 | 0.966 | 10 | 1.06 | SKHHLYSDLQT [PTCHD1_Y84_R82H] | 0.887 | 0.487 | 0.389 | 0.462 | 1.91 | 0.51 | 0.985 | 0.786 | 0.505 | 0.55 | 0.634 | 2.23 | 0.589
6 | 1.08 | 1.3 | 0.818 | ANRNVYEVEPT [MEGF10_Y1075] | 0.63 | 0.787 | 0.5 | 0.451 | 0.473 | 0.6 | 0.842 | 0.755 | 6.32 | 0.404 | 4 | 0.476 | 0.47
7 | 3.83 | 6.46 | 1.11 | CSTIHYNYMCN [TP53_Y234_T230S] | 0.656 | 0.784 | 0.542 | 0.586 | 0.555 | 0.411 | 0.399 | 0.758 | 0.461 | 0.545 | 0.435 | 0.375 | 0.585
8 | 0.922 | 0.473 | 0.793 | QCTSAYLLQPE [NANS_Y188_P189L] | 1.19 | 1.41 | 0.727 | 0.555 | 0.611 | 1.24 | 0.596 | 1.49 | 1.01 | 0.733 | 1.4 | 0.785 | 1.21
9 | 0.637 | 0.518 | 0.679 | AELKLYSGAQT [ZAP70_Y178_R175L] | 0.82 | 0.877 | 0.571 | 0.567 | 0.485 | 0.526 | 0.646 | 0.956 | 0.455 | 0.39 | 0.362 | 0.395 | 0.595
10 | 0.56 | 0.38 | 0.727 | ALADKYHGGGG [HBB_Y146_H144D] | 0.439 | 0.467 | 0.374 | 0.287 | 0.375 | 0.423 | 0.355 | 0.517 | 0.39 | 0.396 | 0.318 | 0.322 | 0.402
11 | 0.49 | 0.518 | 1.02 | GRDQPYSGTGD [TYRO3_Y828_A831T] | 0.713 | 0.667 | 0.43 | 0.385 | 0.526 | 0.673 | 0.481 | 0.757 | 0.549 | 0.49 | 0.441 | 0.492 | 0.52
12 | 0.969 | 0.585 | 0.903 | MGRVNYGAFIN [GLB1_Y485_YF] | 0.616 | 0.567 | 0.498 | 0.399 | 0.382 | 0.472 | 0.422 | 0.707 | 0.408 | 0.398 | 0.562 | 0.426 | 0.496
13 | 0.725 | 0.394 | 0.596 | IRKKYYRAILE [CHD7_Y1218_Q1214R] | 0.439 | 0.529 | 0.362 | 0.388 | 0.389 | 0.478 | 0.485 | 0.581 | 0.405 | 0.423 | 0.446 | 0.508 | 0.439
14 | 1.01 | 0.954 | 1.22 | RHPYFFAPELL [ALB_Y174_Y174F] | 1.39 | 1.22 | 0.613 | 0.723 | 0.541 | 1.19 | 0.598 | 1.33 | 0.601 | 16.3 | 1.29 | 0.557 | 13.9
15 | 0.525 | 0.567 | 0.785 | EATKGYLDDPT [G6PD_Y322] | 0.949 | 0.859 | 0.473 | 0.655 | 0.553 | 0.774 | 0.421 | 1.03 | 0.424 | 0.412 | 0.392 | 0.455 | 0.593
16 | 0.342 | 0.32 | 0.606 | ARVANYQRDGP [CAT_Y386] | 0.486 | 0.785 | 0.406 | 0.564 | 0.394 | 0.496 | 0.386 | 0.607 | 0.436 | 0.524 | 0.545 | 0.574 | 0.526
17 | 0.674 | 0.466 | 0.994 | EASGIYVKSII [PATJ_Y396] | 0.983 | 1.02 | 0.535 | 0.543 | 0.492 | 0.677 | 0.52 | 1.13 | 0.429 | 0.523 | 0.458 | 0.438 | 0.659

Row | SH2 binding enrichment (SHP2-C SH2) | SH2 binding enrichment (c-Src SH2) | SH2 binding enrichment (Grb2 SH2) | Sequence | phosphorylation enrichment (Jak2) | phosphorylation enrichment (AncSZ) | phosphorylation enrichment (EPHB2) | phosphorylation enrichment (EPHB1) | phosphorylation enrichment (Fer (mouse)) | phosphorylation enrichment (c-Abl (mouse)) | phosphorylation enrichment (Hck) | phosphorylation enrichment (Fes) | phosphorylation enrichment (Fyn) | phosphorylation enrichment (FGFR1) | phosphorylation enrichment (c-Src) | phosphorylation enrichment (MERTK) | phosphorylation enrichment (FGFR3)
18 | 0.899 | 0.64 | 1.16 | FSKTQYNQVPR [CXADR_Y318_S323R_YF] | 0.491 | 0.482 | 0.361 | 0.409 | 0.367 | 0.6 | 0.457 | 0.502 | 0.437 | 0.312 | 0.484 | 0.428 | 0.447
19 | 4.87 | 4.93 | 1.45 | CTTIHYNYLCN [TP53_Y234_M237L] | 0.655 | 0.873 | 0.491 | 0.482 | 0.568 | 0.479 | 0.536 | 0.84 | 0.51 | 0.505 | 0.394 | 0.436 | 0.594
20 | 0.665 | 0.592 | 0.874 | ANYTEYVATSW [CDKL5_Y171_R175S] | 0.897 | 1.34 | 8.89 | 7.89 | 0.555 | 0.812 | 0.672 | 0.867 | 0.722 | 3.44 | 0.763 | 0.815 | 2.82
21 | 0.985 | 1.03 | 0.991 | VFAANYFKLLG [ROR2_Y645_D644N_YF] | 5.33 | 0.872 | 0.648 | 0.645 | 0.472 | 0.73 | 0.526 | 1.04 | 0.58 | 2.44 | 0.56 | 1.13 | 1.58
22 | 0.913 | 0.595 | 0.792 | MKALGYFAVVK [OPA1_Y498_T503K] | 1 | 1.05 | 0.569 | 0.507 | 0.596 | 0.767 | 0.48 | 1.25 | 0.464 | 0.51 | 0.397 | 0.439 | 0.692
23 | 0.453 | 0.483 | 0.715 | MHLRQYKLLGG [GNAS_Y391_E392K] | 0.548 | 0.51 | 0.44 | 0.534 | 0.399 | 0.478 | 0.522 | 0.764 | 0.443 | 0.478 | 0.419 | 0.412 | 0.535
24 | 0.891 | 0.805 | 1.36 | TPRNTYKMTSL [MKI67_Y849] | 0.477 | 0.477 | 0.545 | 0.323 | 0.443 | 0.496 | 0.395 | 0.512 | 0.475 | 0.386 | 0.459 | 0.428 | 0.445
25 | 1.65 | 0.567 | 0.697 | SHISGYATLRR [RAPH1_Y1226] | 0.628 | 0.941 | 0.391 | 0.374 | 0.399 | 0.43 | 0.4 | 0.753 | 0.392 | 0.392 | 0.382 | 0.438 | 0.562
26 | 0.682 | 0.489 | 0.766 | MSLPGYKLVTG [GJA1_Y286_P283L] | 0.497 | 0.536 | 0.393 | 0.374 | 0.518 | 0.348 | 0.345 | 0.585 | 0.378 | 0.495 | 0.353 | 0.364 | 0.456
27 | 0.748 | 0.558 | 0.812 | KLADMYGGGED [CDH1_Y876] | 0.732 | 0.766 | 0.43 | 0.424 | 0.461 | 0.455 | 0.463 | 0.79 | 0.484 | 0.561 | 0.42 | 0.436 | 0.509
28 | 0.655 | 0.46 | 0.794 | EKKDLYKAGEQ [CFH_Y1008_V1007L] | 0.606 | 0.705 | 0.432 | 0.382 | 0.431 | 0.62 | 0.374 | 0.799 | 0.43 | 0.356 | 0.369 | 0.374 | 0.647
29 | 0.659 | 0.608 | 0.659 | PEFINYHQHNS [BTK_Y361_L358F] | 0.933 | 0.709 | 0.515 | 0.299 | 0.335 | 0.491 | 0.485 | 0.607 | 0.552 | 0.821 | 1.03 | 0.507 | 0.947
30 | 0.71 | 0.502 | 0.787 | KRIETYFSKNY [PLP1_Y50_L46R] | 0.661 | 0.658 | 0.365 | 0.427 | 0.377 | 0.532 | 0.484 | 0.748 | 0.374 | 0.436 | 0.384 | 0.392 | 0.504
31 | 0.519 | 0.316 | 0.665 | EFSNQYKATIG [RAB7A_Y37_K32E] | 0.52 | 0.455 | 0.413 | 0.411 | 0.442 | 0.524 | 0.446 | 0.559 | 0.339 | 0.405 | 0.311 | 0.342 | 0.474
32 | 1.41 | 0.981 | 1.27 | GVTLLYFGRFN [ADGRD1_Y85_YF] | 1.32 | 1.54 | 0.676 | 0.501 | 0.497 | 0.817 | 0.541 | 1.34 | 0.562 | 0.448 | 0.426 | 0.389 | 0.794
33 | – | – | – | DCPASYKKKSM [PDGFRA_Y768_R764C] | 0.168 | 0.394 | 0.189 | 0.591 | 0.384 | 0.337 | 0.368 | 0.323 | 0.283 | 0.416 | 0.253 | 0.363 | 0.202
34 | 0.884 | 0.773 | 1.39 | RVGVDYEGGGC [PLOD1_Y675] | 0.377 | – | – | – | – | 0.239 | – | – | – | – | 0.287 | – | –
